# In article PMC11093223 (2024):
# Assays:
# [1] = molecular target: TBC1D23 C-terminal domain K672A (mouse, UniProt Q8K0F1 559-677, K672A); test: ITC
# [2] = molecular target: TBC1D23 C-terminal domain (mouse, UniProt Q8K0F1 559-684); test: ITC
# Sequence of TBC1D23 C-terminal domain (Q8K0F1 559-684): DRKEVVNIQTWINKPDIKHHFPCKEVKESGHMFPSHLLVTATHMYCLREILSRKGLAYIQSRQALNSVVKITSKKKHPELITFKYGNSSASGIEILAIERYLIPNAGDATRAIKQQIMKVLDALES
# Sequence of TBC1D23 C-terminal domain K672A (Q8K0F1 559-677 K672A): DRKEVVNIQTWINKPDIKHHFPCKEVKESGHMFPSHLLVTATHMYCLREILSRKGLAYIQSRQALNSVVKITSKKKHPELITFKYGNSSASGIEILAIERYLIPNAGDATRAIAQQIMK
Kd [1],Kd [2],Binder
27.5 µM,–,DDNTLYHRGFTED [syntaxin-16 (209–221) peptide]
–,10.3 µM,DDNTLYHAGFTED [STX16 R216A]
–,> 200 µM,AANTLYHRGFTED [STX16 DD209-210AA]
